The term stoichiometry N denotes the number of molecules, sites or subunits per partner or assembly.

The data set concerns the molecule itself. Kind of data set: SEC. For orientation: SEC sorts molecules by how far they enter the pores of the column.

B1: KvLm-PM, pore module of KvLm (S4-S5 linker-S5-P-S6-C-terminus) (domain or fragment, Listeria monocytogenes, UniProt Q8Y5K1 98-247, looked up)
chain: RYIVPIYSFFRSNGLNRFLMIFVLLVIIIPVPMVFIEPEINNYPDALWWAIVTATTVGYGDIVPVTPIGRILASIMMLFGIAFIGMITSTITNFFRAKKPTNSSTQRANKITQLISETPDLTKEEIAVVEQFLTLRKKELADENTKSDSE
As for B1, the “stoichiometry N” value came to 4.

The values are drawn from article PMC2585861 (The Journal of General Physiology, 2008).
